Source: patent publication US20220144932A1

What was measured:
[1] = molecular target: Recombinant FAM19A5 rabbit Fc fusion protein (human; rabbit) (UniProt Q7Z5A7); assay: flow cytometry, blocking: FAM19A5-rFc (1 µM) with scFv-Cκ (5 µM) on human glioblastoma cell line U87MG; blocked: binding of FAM19A5-rFc to the cells
[2] = molecular target: Recombinant FAM19A5 rabbit Fc fusion protein (human; rabbit) (UniProt Q7Z5A7); assay: flow cytometry, blocking: FAM19A5-rFc (1 µM) with scFv-Cκ (5 µM) on mouse primary glial cells; blocked: binding of FAM19A5-rFc to the cells

percent reduction of MFI [1]: 69.6%
percent reduction of MFI [2]: 88.9%
B1: 2-13 anti-FAM19A5 scFv human Cκ fusion protein (scFv, not shown: a dimerising Fc or GST)
scFv: ALTQPSSVSANPGETVKITCSGGSYSYGWFQQKSPGSALVTVIYWDDERPSDIPSRFSGALSGSTNTLTITGVQADDEAVYFCGTEDISGTAGVFGAGTTLTVLGQSSRSSGGGGSSGGGGSAVTLDESGGGLQTPGGALSLVCKASGFTFSSHGMFWVRQTPGKGLEYVAEITNDGSGTNYGSAVKGRATISRDNGQSTVRLQLNNLRAEDTGTYFCARSTYECPGGFSCWGDTGQIDAWGHGTEVIVSS
